Assays:
TS1 cells = assay: Internalization of bound labelled rIL-9 (resistance to acid induced dissociation); assay type: cell-based, mouse; conditions: TS1 cells saturated at 4° C. with 3.3×10^-10 M labelled rIL-9, then 37° C.; after about one hour; acid pH 3.0 (FIG. 5)
Protocol: It is known that when cytokines are mixed with their receptors at 37° C., they bind thereto when incubated and this is generally followed by internalization of the cytokine. This is determined via testing for increased resistance to acid induced dissociation of bound radiolabel.
To test this for the labeled rIL-9, 7×10^6 TS1 cell/ml were incubated at 4° C. in binding medium as described supra, but lacking Na3 N, with either 3.3×10^-10 M labelled rIL-9, or this concentration of the labelled cytokine plus a 100 fold excess of unlabeled rIL-9. This saturates the cells. After three hours of incubation, the cells were washed with cold binding medium to remove unbound ligand, and the cells were transferred to medium lacking rIL-9, at a temperature of 37° C. At various time intervals, the cells were incubated for two minutes with either of 360 ul of binding medium, or with citrate buffer (50 mM, pH 2.5). Contact with citrate buffer, in effect, exposed the cells to a pH of 3.0.

T helper clone TUC7.33 = assay: IL-9 induced proliferation, thymidine incorporation; assay type: cell-based; conditions: resting TUC7.33 cells, saturating IL-9, thymidine incorporation day 3
Protocol: (§1) The correlation between IL-9 and proliferation of T4 cell lines in response to IL-9 was studied. Resting T cells were collected from two week cultures, and 2×10^6 cells were stimulated by antigen (KLH, 25 ug/ml) in the presence of 70×10^6 & spleen cells for four days. Blasts were isolated by centrifugation and IL-9 binding was determined following incubation with 7.5×10^-10 M labelled rIL-9. Resting cells which had not been restimulated were treated in parallel. Maximal IL-9 induced proliferation was measured by incubation of resting cells in microliter plates (50,000/well), either with or without saturating concentrations of IL-9. Radioactive thymidine incorporation, which was the manner in which proliferation was determined, was measured on day 3.

T helper clone TUC7.51 = assay: as above; assay type: cell-based; conditions: resting TUC7.51 cells, saturating IL-9, thymidine incorporation day 3
Protocol: as §1

T helper clone TUC7.11 = assay: as above; assay type: cell-based; conditions: resting TUC7.11 cells, saturating IL-9, thymidine incorporation day 3
Protocol: as §1

T helper clone TUC2.15 = assay: as above; assay type: cell-based; conditions: resting TUC2.15 cells, saturating IL-9, thymidine incorporation day 3
Protocol: as §1

IL-9R [1] = biological target: T1, IL-9R (Mus musculus, UniProt Q01114); assay: IL-9 binding to resting and activated T helper clones; design: endogenous in cells; conditions: 7.5×10^-10 M labelled rIL-9
T1 sequence (Q01114 38-468): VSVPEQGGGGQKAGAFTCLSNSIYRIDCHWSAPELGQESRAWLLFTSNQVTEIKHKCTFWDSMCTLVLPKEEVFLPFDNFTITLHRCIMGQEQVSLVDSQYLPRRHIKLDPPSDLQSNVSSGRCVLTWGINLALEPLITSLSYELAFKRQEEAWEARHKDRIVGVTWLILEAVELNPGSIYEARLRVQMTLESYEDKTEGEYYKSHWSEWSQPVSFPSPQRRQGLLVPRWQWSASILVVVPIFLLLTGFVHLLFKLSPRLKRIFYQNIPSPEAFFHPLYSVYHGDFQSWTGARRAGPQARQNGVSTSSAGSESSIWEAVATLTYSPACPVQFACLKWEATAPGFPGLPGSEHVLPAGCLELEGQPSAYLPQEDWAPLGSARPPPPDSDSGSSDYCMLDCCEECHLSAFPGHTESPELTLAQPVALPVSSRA
Protocol: as §1

IL-9R [2] = biological target: T1, IL-9R; assay: Competitive binding of radiolabelled rIL-9 to TS1 cells (specificity of IL-9 binding); design: a number of different cell types were tested for the presence of the IL-9R molecule; endogenous in cells; conditions: competitor 6.1 × 10^-10 M; labelled rIL-9 6.1×10^-10 M, 10^6 TS1 cells, 3 h 4° C.; no competitor 4083 ± 16
Protocol: In order to test whether the radioactive IL-9 would bind to TS1 cells which are mouse cells, which are IL-9 dependent, a competitive assay was carried out. Specifically, rIL-9 was incubated with TS1 cells in 140 ul of DMEM containing BSA (10 mg/ml) and Na3 N (10 mM). In order to determine the level of binding, a 100 fold excess of "cold", i.e., non-radiolabelledIL-9, was also mixed with the material. The rIL-9 was admixed at 6.1×10^-10 M, for three hours at 4° C., with 10^6 TS1 cells. Bound material was separated from free ligand via centrifugation over a layer of dibutyl and dioctyl phthalate (15:I). In addition, the experiments were repeated using various interleukins, interferon-γ ("INF-γ"), tumor necrosis factor ("TNF"), and granulocyte, macrophage colony stimulating factor ("GM-CSF"). All experiments were carried out in triplicate.

IL-9: lymphokine interleukin-9, T-cell derived growth factor; in Tables II and III the 125I-labelled recombinant form is used
internalization of IL-9 (TS1 cells): most of the IL-9 was internalized | IL-9 induced proliferation Stimulatin Index (T helper clone TUC7.33): 0.8 | IL-9 induced proliferation Stimulatin Index (T helper clone TUC7.51): 23.8 | IL-9 induced proliferation Stimulatin Index (T helper clone TUC7.11): 1.1 | IL-9 induced proliferation Stimulatin Index (T helper clone TUC2.15): 11.2 | IL-9 binding Activated Cells (IL-9R [1]; T helper clone TUC2.15, antigen (KLH) stimulated blasts): 532 mol/cell | IL-9 binding Resting Cells (IL-9R [1]; T helper clone TUC2.15): 159 mol/cell | IL-9 binding Resting Cells (IL-9R [1]; T helper clone TUC7.11): < 10 mol/cell | IL-9 binding Activated Cells (IL-9R [1]; T helper clone TUC7.33, antigen (KLH) stimulated blasts): < 10 mol/cell | IL-9 binding Resting Cells (IL-9R [1]; T helper clone TUC7.33): 21 mol/cell | IL-9 binding Activated Cells (IL-9R [1]; T helper clone TUC7.51, antigen (KLH) stimulated blasts): 514 mol/cell | IL-9 binding Resting Cells (IL-9R [1]; T helper clone TUC7.51): 94 mol/cell | Bound Radioactivity (IL-9R [2]): 1181 ± 123 cpm
